Legend:
[1] = biological target: Human GHSR (growth hormone secretagogue receptor, ghrelin receptor), purified and inserted into lipid nanodiscs (human) (UniProt Q92847); assay: FRET or BRET; competition: time-resolved energy transfer between purified GHSR labeled with Lumi4-Tb at its N-terminus and dy647-labeled ghrelin (0.1 µM range), increasing competitor; GHSR in 17 nm nanodiscs (cNW30 scaffold); isolated receptor without G protein
[2] = biological target: Human GHSR (growth hormone secretagogue receptor, ghrelin receptor), purified and inserted into lipid nanodiscs (human) (UniProt Q92847); assay: FRET or BRET; competition: time-resolved energy transfer between purified GHSR labeled with Lumi4-Tb at its N-terminus and dy647-labeled ghrelin (0.1 µM range), increasing competitor; GHSR in 12 nm nanodiscs (MSP1E3D1(-) scaffold); isolated receptor without G protein

UniProt Q92847, sequence (Q92847 whole entry): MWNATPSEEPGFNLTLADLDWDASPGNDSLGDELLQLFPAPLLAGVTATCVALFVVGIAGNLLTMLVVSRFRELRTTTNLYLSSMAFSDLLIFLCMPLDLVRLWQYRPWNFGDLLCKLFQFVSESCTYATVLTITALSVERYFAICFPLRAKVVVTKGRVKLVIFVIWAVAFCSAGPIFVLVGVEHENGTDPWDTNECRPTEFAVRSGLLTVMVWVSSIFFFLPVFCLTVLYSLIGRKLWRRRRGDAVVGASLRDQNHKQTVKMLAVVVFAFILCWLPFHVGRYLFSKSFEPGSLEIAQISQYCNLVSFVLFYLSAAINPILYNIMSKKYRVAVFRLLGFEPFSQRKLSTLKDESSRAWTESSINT

LEAP2(1-14), the active N-terminal region of the natural inverse agonist LEAP2 (peptide)
Ki [1]: 4.6 nM | Ki [2]: 6.7 nM
